T1: mIL2Rb ECD antigen (murine, UniProt P16297 27-240)
T1 construct: The immunogen was the ECD fused to human IgG1 hinge and Fc; also called ECD of IL2Rb (mouse)
T1 sequence: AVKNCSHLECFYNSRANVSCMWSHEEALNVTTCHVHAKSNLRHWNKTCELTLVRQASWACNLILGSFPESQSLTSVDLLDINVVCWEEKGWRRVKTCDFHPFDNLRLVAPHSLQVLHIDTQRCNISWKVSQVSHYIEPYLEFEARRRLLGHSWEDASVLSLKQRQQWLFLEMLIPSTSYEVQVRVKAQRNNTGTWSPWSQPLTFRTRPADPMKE

B1: DR1456 (VHH)
VHH: EVQLVESGGGLVQAGGSLRLSCAASGLTFRTYYMSWFRQAPGKEREFVGVISWIGSTTLYADSVKGRFSISRDNAKNTVYLQMNNLKPEDTAVYYCAANFLREGKREPRYWGQGTQVTVSS
notes: As a his-tagged phage clone periplasmic extract
B2: DR1451 (VHH)
VHH: EVQLVESGGGLVQAGDSLRLSCAASERFSWGNYAMYWFRQAPGKEREFVAAIGRNSMATYYRDSAKGRFVISRDNAKNTLYLEMNALKPEDTARYYCAAKFMVADGWSRQYDYWGQGTLVTVSS
notes: as for B1
B3: DR1455 (VHH)
VHH: EVQLVESGGGLVQTGGSLRLSCAASGRTFNSYAMGWFRQSPGKEREFVAVITWNSGRTYYADSVKGRFTISRDNAKNTVYLQMNSLKPEDTAVYYCNSAPWAHNREWGQGTLVTVSS
notes: as for B1
B4: DR857 (VHH)
VHH: QVQLQESGGGLVQPGGSLRLSCAASGFTFSLYDMSWVRQAPGKGLEWVSGINSGGYSTYYAASAKGRFTISRDNAKNTLYLQLSSVKTEDTAMYYCAQRGLTSPYVIPNIRLQGTQVTVSS
notes: as for B1
B5: DR1448 (VHH)
VHH: EVQLVESGGRLVQAGDSLRLSCVASGKSFSDYPLGWFRQAPGKAREYVAHISWSGKLTYYRSTVKGRFTISRDNAENKLYLQMNALKPEDTAVYYCAAMKLFNYGGRYCVLKPLTMYQQWSQGTQVTVSS
notes: as for B1
B6: DR1452 (VHH)
VHH: EVQLVESGGGLVQAGGALRLSCAASGRTFRRFMGWFRQAPGKEREFVAAINWPGGGTYYGDSVKGRFTISRDNAKNTVYLQMNSLKPEDTANYYCAATRKYNLYKFADWGQGTQVTVSS
notes: as for B1
B7: DR1458 (VHH)
VHH: EVQLVESGGGLVQAGGSLRLSCAASGRTLSTYAMGWFRQAPGKEREFVAAIRWASGRTYYGDSVKGRFTISRDSAKNTVYLQMNSLKPEDTAVYYCAARSRPYLNYGDFGYWGQGTQVTVSS
notes: as for B1
B8: DR1453 (VHH)
VHH: EVQLVESGGRLVQAGDSLRLSCVASGRIFNTYSMGWFRQVPGKERDFVAAIRWSGGTTYYTDSVKGRFTISRDNAKNTVYLQMNSLKPEDTAVYYCWVRVRLSNTALLQRYWGQGTLVTVSS
notes: as for B1
B9: DR1457 (VHH)
VHH: EVQLVESGGRLVQAGDSLRLSCVASGRIFNTYSMGWFRQVPGKERDFVAAIRWSGGTTYYTDSVKGRFTISRDNAKNTVYLQMNSLKPEDTAVYYCYLRVFARRYWGQGTQVTVSS
notes: as for B1
B10: DR1449 (VHH)
VHH: EVQLVESGGGLVQAGGSLRLSCAASGRSFSGYAIGWFRQAPGKEREFVAVVSWRGSSTYYADSVKGRFTISRDNAKGTVYLQMNSLKPEDTAAYYCAAVPSGRSWYGRNRYWGQGTQVTVSS
notes: as for B1
B11: DR1454 (VHH)
VHH: EVQLVESGGGLVQAGGSLRLFCASSERTFGDYPIGWFRQAPGKEREFVASISWGGSRQYYTDSVKGRFTITRDNDKNTVYLQMNSLKPEDTAVYYCWVRVRLSNTALLQRYWGQGTLVTVSS
notes: as for B1
B12: DR1450 (VHH)
VHH: EVQLVESGGGLVQAGGSLRLSCVISGRSINYYRMGWFRQAPGNRRQFVAAIKWGGDGVYADSVKGRFTISRDNTKNTVYLQMDSLKPEDTGTYYCAKMPLSSWSRGGYLEVWGQGTLVTVSS
notes: as for B1

We go through twelve molecules from patent US20250019453A1 (SYNTHEKINE, published 2025).

The test concerns the target T1, mIL2Rb ECD antigen. Description: PE-ELISA of phage clones. (An ELISA detects its analyte on a solid surface through an enzyme-linked reagent.)
As to B1, the binding result was “binds”. For B2 the value was “binds”; for B3, “binds”. For B4 the value was “binds”; for B5, “binds”. As to B6, the binding result is recorded as “binds”.

In the case of B7, the binding result is recorded as “binds”. Take B8: the binding result is recorded as “binds”.

As for B9, the binding result is “binds”.

For B10, the binding result is listed as “binds”. Under B11 stands “binds”. Regarding B12, the binding result is “binds”.
